The text below walks through data of article PMC12048511, “An asymmetric nautilus-like HflK/C assembly controls FtsH proteolysis of membrane proteins” (The EMBO Journal, 2025).

This assay concerns the target T1, FtsH with a C-terminal FLAG epitope (chromosomally encoded) (E. coli, UniProt P0AAI3 1-644).
T1 construct: FtsH, E. coli BL21(DE3), product of the chromosomal ftsH gene with a tag appended to its C-terminus; residues 31-97 (periplasmic domain) are modelled in PDB 9CZ2; Homohexamer; one or two hexamers per HflK/C assembly; also called FtsH-FLAG (C-terminal); tagged FtsH; source: E. coli BL21(DE3), chromosomal ftsH locus modified (no overproduction); anti-FLAG M2 resin from membranes solubilised with …
Nature of the assay: co-IP; anti-FLAG M2 resin on solubilised membranes of E. coli with chromosomally FLAG-tagged FtsH (1% DDM or 2% GDN; also detergent-free with Carboxy-DIBMA), eluted with FLAG peptide; no overproduction. The settings on record: partners not purified.

T1 sequence (P0AAI3 whole entry, the tested form may be a part): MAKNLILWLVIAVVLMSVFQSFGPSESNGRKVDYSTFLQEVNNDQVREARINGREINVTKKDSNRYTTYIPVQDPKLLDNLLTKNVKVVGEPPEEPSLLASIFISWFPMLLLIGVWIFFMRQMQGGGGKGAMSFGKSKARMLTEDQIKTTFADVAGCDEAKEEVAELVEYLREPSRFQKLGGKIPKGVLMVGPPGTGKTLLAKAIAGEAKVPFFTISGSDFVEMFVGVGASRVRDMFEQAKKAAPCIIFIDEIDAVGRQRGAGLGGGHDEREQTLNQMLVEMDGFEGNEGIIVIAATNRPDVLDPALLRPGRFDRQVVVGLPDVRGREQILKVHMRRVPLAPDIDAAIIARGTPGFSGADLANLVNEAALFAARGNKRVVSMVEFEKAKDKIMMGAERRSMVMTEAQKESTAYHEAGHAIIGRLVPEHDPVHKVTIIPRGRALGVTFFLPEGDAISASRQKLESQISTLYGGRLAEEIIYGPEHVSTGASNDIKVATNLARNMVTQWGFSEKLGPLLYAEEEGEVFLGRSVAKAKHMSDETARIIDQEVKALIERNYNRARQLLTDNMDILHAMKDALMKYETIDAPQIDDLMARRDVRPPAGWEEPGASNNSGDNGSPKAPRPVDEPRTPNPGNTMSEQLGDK

B1: HflK (endogenous) (natural protein, E. coli (endogenous in BL21(DE3)), UniProt P0ABC7 1-419, looked up)
chain: MAWNQPGNNGQDRDPWGSSKPGGNSEGNGNKGGRDQGPPDLDDIFRKLSKKLGGLGGGKGTGSGGGSSSQGPRPQLGGRVVTIAAAAIVIIWAASGFYTIKEAERGVVTRFGKFSHLVEPGLNWKPTFIDEVKPVNVEAVRELAASGVMLTSDENVVRVEMNVQYRVTNPEKYLYSVTSPDDSLRQATDSALRGVIGKYTMDRILTEGRTVIRSDTQRELEETIRPYDMGITLLDVNFQAARPPEEVKAAFDDAIAARENEQQYIREAEAYTNEVQPRANGQAQRILEEARAYKAQTILEAQGEVARFAKLLPEYKAAPEITRERLYIETMEKVLGNTRKVLVNDKGGNLMVLPLDQMLKGGNAPAAKSDNGASNLLRLPPASSSTTSGASNTSSTSQGDIMDQRRANAQRNDYQRQGE
notes: HflK, E. coli BL21(DE3), SPFH-domain protein; residues 79-355 modelled for most subunits in PDB 9CZ2; 24 alternating HflK and HflC subunits form the nautilus-like assembly; also called HflK/C subunit; source: endogenous, E. coli BL21(DE3), co-purified with FtsH-FLAG on anti-FLAG resin
On to B1, for which the binding result is “binds”.
